# Assay results as given in IntAct's records for PubMed 19617557.
# B1: Gamma-aminobutyric acid receptor subunit beta-3 (Rattus norvegicus (Rat)), P63079 (parent)
# chain: MWGFAGGRLFGIFSAPVLVAVVCCAQSVNDPGNMSFVKETVDKLLKGYDIRLRPDFGGPPVCVGMNIDIASIDMVSEVNMDYTLTMYFQQYWRDKRLAYSGIPLNLTLDNRVADQLWVPDTYFLNDKKSFVHGVTVKNRMIRLHPDGTVLYGLRITTTAACMMDLRRYPLDEQNCTLEIESYGYTTDDIEFYWRGGDKAVTGVERIELPQFSIVEHRLVSRNVVFATGAYPRLSLSFRLKRNIGYFILQTYMPSILITILSWVSFWINYDASAARVALGITTVLTMTTINTHLRETLPKIPYVKAIDMYLMGCFVFVFLALLEYAFVNYIFFGRGPQRQKKLAEKTAKAKNDRSKSEINRVDAHGNILLAPMDVHNEMNEVAGSVGDTRNSAISFDNSGIQYRKQSMPKEGHGRYMGDRSIPHKKTHLRRRSSQLKIKIPDLTDVNAIDRWSRIVFPFTFSLFNLVYWLYYVN
# Variants of: B1
# Conditions: with ap2m1_rat Ap2m1, P84092
# Chain of ap2m1_rat Ap2m1, P84092 (P84092 whole entry): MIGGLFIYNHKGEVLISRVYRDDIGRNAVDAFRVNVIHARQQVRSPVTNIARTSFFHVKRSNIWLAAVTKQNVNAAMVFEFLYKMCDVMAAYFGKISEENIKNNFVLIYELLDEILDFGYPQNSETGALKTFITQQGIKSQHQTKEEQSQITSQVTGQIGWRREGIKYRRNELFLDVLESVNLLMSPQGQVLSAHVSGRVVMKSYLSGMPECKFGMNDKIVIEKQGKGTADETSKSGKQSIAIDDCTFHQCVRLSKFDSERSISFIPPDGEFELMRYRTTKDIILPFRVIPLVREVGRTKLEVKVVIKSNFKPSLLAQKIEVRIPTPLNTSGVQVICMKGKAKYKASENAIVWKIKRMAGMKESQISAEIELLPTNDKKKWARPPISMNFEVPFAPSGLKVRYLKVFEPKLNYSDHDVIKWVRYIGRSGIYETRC
row,Variant,effect of a mutation on the interaction
1,S432A;S433A,decreasing interaction strength
